{"source": "patent US20230035659A1", "about": "“Compositions and Methods for TTR Gene Editing and Treating ATTR Amyloidosis Comprising a Corticosteroid or Use Thereof” (Intellia Therapeutics, Inc., priority 2019, published 2023)", "molecules": {"B1": {"name": "G000484: TTR sgRNA modified sequence, Human, SEQ ID NO: 91; guide sequence of CR003367 (nucleic acid)", "guide": "mA*mG*mA*rCrArCrCrArArArUrCrUrUrArCrUrGrGrArGrUrUrUrUrArGrAmGmCmUmAmGmAmAmAmUmAmGmCrArArGrUrUrArArArArUrArArGrGrCrUrArGrUrCrCrGrUrUrArUrCrAmAmCmUmUmGmAmAmAmAmAmGmUmGmGmCmAmCmCmGmAmGmUmCmGmGmUmGmCmU*mU*mU*mU"}, "B2": {"name": "G000482: TTR sgRNA modified sequence, Human, SEQ ID NO: 89; guide sequence of CR003365 (nucleic acid)", "guide": "mU*mG*mU*rArGrArArGrGrGrArUrArUrArCrArArArGrGrUrUrUrUrArGrAmGmCmUmAmGmAmAmAmUmAmGmCrArArGrUrUrArArArArUrArArGrGrCrUrArGrUrCrCrGrUrUrArUrCrAmAmCmUmUmGmAmAmAmAmAmGmUmGmGmCmAmCmCmGmAmGmUmCmGmGmUmGmCmU*mU*mU*mU"}, "B3": {"name": "G000481: TTR sgRNA modified sequence, Human, SEQ ID NO: 88; guide sequence of CR003345 (nucleic acid)", "guide": "UCUAGAACUUUGACCAUCAGGUUUUAGAGCUAGAAAUAGCAAGUUAAAAUAAGGCUAGUCCGUUAUCAACUUGAAAAAGUGGCACCGAGUCGGUGCUUUU", "modifications": "sugars from the 5' end m3 r25 m12 r28 m32, backbone not given here; further chemistry not fully specified"}, "B4": {"name": "G000494: TTR sgRNA modified sequence, Human, SEQ ID NO: 101; guide sequence of CR003360 (nucleic acid)", "guide": "mG*mU*mG*rArGrUrCrUrGrGrArGrArGrCrUrGrCrArUrGrUrUrUrUrArGrAmGmCmUmAmGmAmAmAmUmAmGmCrArArGrUrUrArArArArUrArArGrGrCrUrArGrUrCrCrGrUrUrArUrCrAmAmCmUmUmGmAmAmAmAmAmGmUmGmGmCmAmCmCmGmAmGmUmCmGmGmUmGmCmU*mU*mU*mU"}, "B5": {"name": "G000483: TTR sgRNA modified sequence, Human, SEQ ID NO: 90; guide sequence of CR005298 (nucleic acid)", "guide": "mU*mC*mC*rArCrUrCrArUrUrCrUrUrGrGrCrArGrGrArGrUrUrUrUrArGrAmGmCmUmAmGmAmAmAmUmAmGmCrArArGrUrUrArArArArUrArArGrGrCrUrArGrUrCrCrGrUrUrArUrCrAmAmCmUmUmGmAmAmAmAmAmGmUmGmGmCmAmCmCmGmAmGmUmCmGmGmUmGmCmU*mU*mU*mU"}, "B6": {"name": "G000489: TTR sgRNA modified sequence, Human, SEQ ID NO: 96; guide sequence of CR003344 (nucleic acid)", "guide": "mU*mU*mU*rGrArCrCrArUrCrArGrArGrGrArCrArCrUrGrUrUrUrUrArGrAmGmCmUmAmGmAmAmAmUmAmGmCrArArGrUrUrArArArArUrArArGrGrCrUrArGrUrCrCrGrUrUrArUrCrAmAmCmUmUmGmAmAmAmAmAmGmUmGmGmCmAmCmCmGmAmGmUmCmGmGmUmGmCmU*mU*mU*mU"}, "B7": {"name": "G000493: TTR sgRNA modified sequence, Human, SEQ ID NO: 100; guide sequence of CR003368 (nucleic acid)", "guide": "mA*mA*mG*rUrGrCrCrUrUrCrCrArGrUrArArGrArUrUrGrUrUrUrUrArGrAmGmCmUmAmGmAmAmAmUmAmGmCrArArGrUrUrArArArArUrArArGrGrCrUrArGrUrCrCrGrUrUrArUrCrAmAmCmUmUmGmAmAmAmAmAmGmUmGmGmCmAmCmCmGmAmGmUmCmGmGmUmGmCmU*mU*mU*mU"}, "B8": {"name": "G000490: TTR sgRNA modified sequence, Human, SEQ ID NO: 97; guide sequence of CR003366 (nucleic acid)", "guide": "mA*mA*mA*rUrArGrArCrArCrCrArArArUrCrUrUrArCrGrUrUrUrUrArGrAmGmCmUmAmGmAmAmAmUmAmGmCrArArGrUrUrArArArArUrArArGrGrCrUrArGrUrCrCrGrUrUrArUrCrAmAmCmUmUmGmAmAmAmAmAmGmUmGmGmCmAmCmCmGmAmGmUmCmGmGmUmGmCmU*mU*mU*mU"}, "B9": {"name": "G000499: TTR sgRNA modified sequence, Human, SEQ ID NO: 106; guide sequence of CR005303 (nucleic acid)", "guide": "mU*mG*mA*rArUrCrCrArArGrUrGrUrCrCrUrCrUrGrArGrUrUrUrUrArGrAmGmCmUmAmGmAmAmAmUmAmGmCrArArGrUrUrArArArArUrArArGrGrCrUrArGrUrCrCrGrUrUrArUrCrAmAmCmUmUmGmAmAmAmAmAmGmUmGmGmCmAmCmCmGmAmGmUmCmGmGmUmGmCmU*mU*mU*mU"}, "B10": {"name": "G000568: TTR sgRNA modified sequence, Human, SEQ ID NO: 110; guide sequence of CR003391 (nucleic acid)", "guide": "mG*mG*mC*rUrGrUrCrGrUrCrArCrCrArArUrCrCrCrArGrUrUrUrUrArGrAmGmCmUmAmGmAmAmAmUmAmGmCrArArGrUrUrArArArArUrArArGrGrCrUrArGrUrCrCrGrUrUrArUrCrAmAmCmUmUmGmAmAmAmAmAmGmUmGmGmCmAmCmCmGmAmGmUmCmGmGmUmGmCmU*mU*mU*mU"}, "B11": {"name": "G000570: TTR sgRNA modified sequence, Human, SEQ ID NO: 111; guide sequence of CR003347 (nucleic acid)", "guide": "mC*mA*mU*rUrGrArUrGrGrCrArGrGrArCrUrGrCrCrUrGrUrUrUrUrArGrAmGmCmUmAmGmAmAmAmUmAmGmCrArArGrUrUrArArArArUrArArGrGrCrUrArGrUrCrCrGrUrUrArUrCrAmAmCmUmUmGmAmAmAmAmAmGmUmGmGmCmAmCmCmGmAmGmUmCmGmGmUmGmCmU*mU*mU*mU"}, "B12": {"name": "G000500: TTR sgRNA modified sequence, Human, SEQ ID NO: 107; guide sequence of CR003337 (nucleic acid)", "guide": "mC*mC*mA*rGrUrCrCrArGrCrArArGrGrCrArGrArGrGrGrUrUrUrUrArGrAmGmCmUmAmGmAmAmAmUmAmGmCrArArGrUrUrArArArArUrArArGrGrCrUrArGrUrCrCrGrUrUrArUrCrAmAmCmUmUmGmAmAmAmAmAmGmUmGmGmCmAmCmCmGmAmGmUmCmGmGmUmGmCmU*mU*mU*mU"}, "B13": {"name": "G000488: TTR sgRNA modified sequence, Human, SEQ ID NO: 95; guide sequence of CR003346 (nucleic acid)", "guide": "mA*mA*mA*rGrUrUrCrUrArGrArUrGrCrUrGrUrCrCrGrGrUrUrUrUrArGrAmGmCmUmAmGmAmAmAmUmAmGmCrArArGrUrUrArArArArUrArArGrGrCrUrArGrUrCrCrGrUrUrArUrCrAmAmCmUmUmGmAmAmAmAmAmGmUmGmGmCmAmCmCmGmAmGmUmCmGmGmUmGmCmU*mU*mU*mU"}, "B14": {"name": "G000567: TTR sgRNA modified sequence, Human, SEQ ID NO: 109; guide sequence of CR003352 (nucleic acid)", "guide": "mG*mA*mA*rArGrGrCrUrGrCrUrGrArUrGrArCrArCrCrGrUrUrUrUrArGrAmGmCmUmAmGmAmAmAmUmAmGmCrArArGrUrUrArArArArUrArArGrGrCrUrArGrUrCrCrGrUrUrArUrCrAmAmCmUmUmGmAmAmAmAmAmGmUmGmGmCmAmCmCmGmAmGmUmCmGmGmUmGmCmU*mU*mU*mU"}, "B15": {"name": "G000572: TTR sgRNA modified sequence, Human, SEQ ID NO: 113; guide sequence of CR003385 (nucleic acid)", "guide": "mC*mC*mC*rCrUrArCrUrCrCrUrArUrUrCrCrArCrCrArGrUrUrUrUrArGrAmGmCmUmAmGmAmAmAmUmAmGmCrArArGrUrUrArArArArUrArArGrGrCrUrArGrUrCrCrGrUrUrArUrCrAmAmCmUmUmGmAmAmAmAmAmGmUmGmGmCmAmCmCmGmAmGmUmCmGmGmUmGmCmU*mU*mU*mU"}}, "note": "Strand notation (5' to 3'): a small letter for the sugar, then the base; units joined by * are phosphorothioate-linked, units joined directly phosphodiester-linked; [ ] holds rarer units or linkages, { } end groups; capitals alone tell only the bases. m = 2'-O-methyl; r = 2'-OH (RNA)"}
{"tested_on": "potential off-target genomic sites", "assay": "Off-target analysis by oligo insertion based assay in primary human hepatocytes (sgRNAs)", "format": "cell-based", "details": "100 ng Cas9 mRNA, 25 nM sgRNA, 12.5 nM donor oligo, 48 h", "protocol": "Off-target analysis of sgRNAs targeting TTR was performed in primary human hepatocytes (PHH) as described in Example 5, with the following modifications. PHH were plated at a density of 33,000 cells per well on collagen-coated 96-well plates as described in Example 1. Twenty-four hours post plating, cells were washed with media and transfected using Lipofectamine RNAiMAX (ThermoFisher, Cat. 13778150) as described in Example 1. Cells were transfected with a lipoplex containing 100 ng Cas9 mRNA, immediately followed by the addition of another lipoplex containing 25 nM of the sgRNA and 12.5 nM of the donor oligo (0.3 μL/well). Cells were lysed 48 hours post-transfection and gDNA was extracted and analyzed as further described in Example 5. The data is graphically represented in FIG. 20.\nFewer sites were detected in PHH for every guide tested as compared to the HekCas9 cell line, with no unique sites detected in PHH alone."}
{"molecule": "B1", "# Sites in PHH (off-target integration sites detected)": 0}
{"molecule": "B2", "# Sites in PHH (off-target integration sites detected)": 2}
{"molecule": "B3", "# Sites in PHH (off-target integration sites detected)": 0}
{"molecule": "B4", "# Sites in PHH (off-target integration sites detected)": 0}
{"molecule": "B5", "# Sites in PHH (off-target integration sites detected)": 0}
{"molecule": "B6", "# Sites in PHH (off-target integration sites detected)": 2}
{"molecule": "B7", "# Sites in PHH (off-target integration sites detected)": 1}
{"molecule": "B8", "# Sites in PHH (off-target integration sites detected)": 0}
{"molecule": "B9", "# Sites in PHH (off-target integration sites detected)": 1}
{"molecule": "B10", "# Sites in PHH (off-target integration sites detected)": 11}
{"molecule": "B11", "# Sites in PHH (off-target integration sites detected)": 1}
{"molecule": "B12", "# Sites in PHH (off-target integration sites detected)": 12}
{"molecule": "B13", "# Sites in PHH (off-target integration sites detected)": 0}
{"molecule": "B14", "# Sites in PHH (off-target integration sites detected)": 0}
{"molecule": "B15", "# Sites in PHH (off-target integration sites detected)": 2}
